From FireProtDB (doi:10.1074/jbc.m304177200) come the findings set out here.

For the data set the following is noted: Kitasatospora aureofaciens; pH 7; Thermal; CD; MOPS 30 mM; reversible: yes(>95%); whole UniProt chain shown.

B1: Guanyl-specific ribonuclease Sa wild type, P05798 (protein)
chain: DVSGTVCLSALPPEATDTLNLIASDGPFPYSQDGVVFQNRESVLPTQSYGYYHEYTVITPGARTRGTRRIITGEATQEDYYTGDHYATFSLIDQTC
As usually defined, the Tm is the temperature at the midpoint of the melting transition. For B1, the Tm came to 48.4 °C and the “unfolding enthalpy (van 't Hoff)” value came out at 95 kcal/mol.
